In patent US8956838B2, “Carboxyl esterase polypeptides” (B.R.A.I.N., priority 2006, dated 2015):

Columns and labels:
Format in all cases: biochemical
[1] = Enzyme activity with pNP-acylesters of different chain length; conditions: 4 mM, 45° C., pH 7.2
Method: Enzyme activity tests were performed by incubating the enzyme with 4 mM substrate at 45° C. in 100 mM Tris-HCl buffer at pH 7.2, unless otherwise indicated. The reaction was measured at 410 nm. One unit is defined as the amount of enzyme catalyzing the appearance of 1 μmol of free p-nitrophenol/min. Enzyme activity against pNP-acylesters (butyrate, valerate, caproate, octanoate, decanoate and palmitate) was tested under the above conditions. […] The enzyme according to SEQ ID NO: 6 converted pNP-caproate with a specific activity of 80.0 U/mg.

[2] = Substrate specificity on pNP-substrates with importance for pharmaceutical products; conditions: 30 minute, 40° C., pH 7.5
Method: The substrate range of the two enzymes was determined using pNP esters of the following: benzoate, 2-(4-isobutylphenyl)propanoate (Ibuprofen), 2-phenylpropanoate, 3-phenylbutanoate, cyclohexanoate, 2-(3-benzoylphenyl)propanoate, 2-naphthoate, 1-naphthoate, adamantanoate and 2-(6-methoxynaphthalene-2-yl)propanoate (Naproxen). Activity was determined at 410 nm after 30 minute incubation at 40° C. The reaction mixture was 950 μl buffer (100 mM Tris, pH 7.5), 50 μl substrate (5 mg/ml in DMSO) and 1 μg enzyme.

[3] = Determination of thermal stability
Method: To assay the thermostability of the enzymes they were incubated at different temperatures for one hour and the residual activity assayed at 10 minute intervals. Residual activity was measured using pNP-caproate as substrate as described above.

[4] = Solvent stability, residual activity; conditions: 1 h at 30° C., measured at 45° C.
Method: The stability of the enzymes was determined in the presence of the following solvents: DMSO, isopropanol, methanol, dimethylformamide, acetone and acetonitrile. The enzymes were incubated for 1 hour at 30° C. in the presence of either 15% (v/v) or 30% (v/v) of the solvents and the residual activity was measured at 45° C. The substrate used was pNP-butyrate.

[5] = Titration assay with triglycerides; conditions: 10 mM, 37° C., pH 7.0
Method: (§1) Enzyme activities on the substrates triacetin, tripropionin, tributyrin, tricaprylene, trilaurin and vinyl-substrates (vinyl-acetate, ˜propionate, ˜butyrate, ˜caproate, ˜caprylate and ˜laurate) were determined using a standard titration assay with minor modifications. Tests were performed with a Methrom 718 STAT potentiometric titrator (Herisau, Switzerland) and by using 10 mM NaOH for titration. The substrates at 10 mM concentration were emulsified in 20 ml reaction buffer containing 2 mM Tris/HCl pH 7.0. After addition of 7.5 μg of the purified enzyme the NaOH consumption was recorded at a reaction temperature of 37° C. One unit was defined as the amount of enzyme that released […] of fatty acid per min.

[6] = Titration assay with vinyl acid esters; conditions: 10 mM, 37° C., pH 7.0
Method: as §1

[7] = Determination of pH optimum by titration; conditions: incubation for up to 48 hours, up to pH 12 (data not shown)
Method: The pH optimum for the enzymes was determined using tributyrin as substrate. The incubation conditions were 20 ml buffer (2.5 mM phosphate buffer [pH 4-7], 2.5 mM Tris/HCl buffer [pH 7-11] or 2.5 mM glycine buffer [pH 9-11], supplemented with 100 mM NaCl) stirred at a constant temperature of 37° C. The esterase substrate tributyrin (final concentration of 2 mM) was added to 5 ml of the corresponding buffer at 37° C., emulsified and added to the whole preparation. This substrate emulsion was held constant at the correct pH automatically by the titrator (718 STAT Titrino; Metrohm, Herisau, Switzerland) for 2 min and this served as the control. […]

B1: EstCE1: recombinant enzyme having carboxyl esterase activity, amino acid sequence SEQ ID NO: 4, family VIII of bacterial lipolytic enzymes (protein)
chain: MSIADQSLAKRVQGVSQQAIDEGRIVGSVVLIARHGRVIYANASGYADREQKKPMVRETQFRLSSVSKPYITLAAMRMIEQQKLGLDDTVSRWLPWFTPALADGVRPPIKIRHLLSHTAGLDYRLSQPAEGPYHRLGIKDGMELSSLTLEQNLRLLAQADLLAEPGSEFRYSLAIDVLGAVLEQVAGEPLPQVFNHWVAQPLGLRNTGFYTTDVDNLATAYHDTAAEPEPIRDGMLLTLPEGFGFEIELAPSRALDAQAYPSGGAGMVGDADDVLQLVETLRTGKEGILQPATAALMRQAHVGSHAETQGPGWGFGFGGAVLEDAQLAATPQHNGTLQWGGVYGHSWFYDPQAAISVVALTNTAFEGMSGRYPLQIRDAVYGTNEPTR
modifications: metagenomic sequence
specific activity ([1]; substrate pNP-butyrate (C4)): 31.1 U/mg
specific activity ([1]; substrate pNP-caproate (C6)): 7.4 U/mg
specific activity ([1]; substrate pNP-decanoate (C10)): 0.9 U/mg
specific activity ([1]; substrate pNP-octanoate (C8)): 1.0 U/mg
specific activity ([1]; substrate pNP-palmitate (C16)): 0.0 U/mg
specific activity ([1]; substrate pNP-valerate (C5)): 22.9 U/mg
specific activity ([2]; pNP-ester of 1-naphthoate): 0 U/mg
specific activity ([2]; pNP-ester of 2-(3-benzoylphenyl) propanoate): 0.8 U/mg
specific activity ([2]; pNP-ester of 2-(4-isobutylphenyl) propanoate (Ibuprofen)): 0 U/mg
specific activity ([2]; pNP-ester of 2-(6-methoxy-naphthalen-2-yl) propanoate (Naproxen)): 0 U/mg
specific activity ([2]; pNP-ester of 2-naphthoate): 0 U/mg
specific activity ([2]; pNP-ester of 2-phenylpropanoate): 0 U/mg
specific activity ([2]; pNP-ester of 3-phenylbutanoate): 1.0 U/mg
specific activity ([2]; pNP-ester of adamantanoate): 0 U/mg
specific activity ([2]; pNP-ester of benzoate): 12.1 U/mg
specific activity ([2]; pNP-ester of cyclohexanoate): 16.8 U/mg
thermal stability, in words ([3]; incubated for at least 60 minutes at 40° C.): without a major loss of activity
thermal stability, in words ([3]; incubation at temperatures above 45° C. for more than 60 minutes (data not shown)): rapid inactivation
Residual activity after 1 h incubation in the presence of solvent ([4]; 15% (v/v) Acetone): 14%
Residual activity after 1 h incubation in the presence of solvent ([4]; 15% (v/v) Acetonitrile): 0%
Residual activity after 1 h incubation in the presence of solvent ([4]; 15% (v/v) DMSO): 103%
Residual activity after 1 h incubation in the presence of solvent ([4]; 15% (v/v) Dimethylformamid): 34%
Residual activity after 1 h incubation in the presence of solvent ([4]; 15% (v/v) Isopropanol): 75%
Residual activity after 1 h incubation in the presence of solvent ([4]; 15% (v/v) Methanol): 90%
Residual activity after 1 h incubation in the presence of solvent ([4]; 30% (v/v) Acetone): 0%
Residual activity after 1 h incubation in the presence of solvent ([4]; 30% (v/v) Acetonitrile): 0%
Residual activity after 1 h incubation in the presence of solvent ([4]; 30% (v/v) DMSO): 17%
Residual activity after 1 h incubation in the presence of solvent ([4]; 30% (v/v) Dimethylformamid): 0%
Residual activity after 1 h incubation in the presence of solvent ([4]; 30% (v/v) Isopropanol): 23%
Residual activity after 1 h incubation in the presence of solvent ([4]; 30% (v/v) Methanol): 0%
specific activity ([5]; substrate triacetin (C2)): 26.7 U/mg
specific activity ([5]; substrate tributyrin (C4)): 54.7 U/mg
specific activity ([5]; substrate tricaprylin (C8)): 0 U/mg
specific activity ([5]; substrate trilaurin (C12)): 0 U/mg
specific activity ([5]; substrate tripropionin (C3)): 33.3 U/mg
specific activity ([6]; substrate vinyl acetate (C2)): 13.3 U/mg
specific activity ([6]; substrate vinyl butyrate (C4)): 16.0 U/mg
specific activity ([6]; substrate vinyl caproate (C6)): 0 U/mg
specific activity ([6]; substrate vinyl caprylate (C8)): 0 U/mg
specific activity ([6]; substrate vinyl laurinate (C12)): 0 U/mg
specific activity ([6]; substrate vinyl propionate (C3)): 13.3 U/mg
stability under alkaline conditions, in words [7]: extremely stable with little loss of activity
